Literature values as cited in PMC3139910.

Biological target: CCR7 (Homo sapiens) (UniProt P32248)
Sequence of UniProt P32248 (P32248 25-378): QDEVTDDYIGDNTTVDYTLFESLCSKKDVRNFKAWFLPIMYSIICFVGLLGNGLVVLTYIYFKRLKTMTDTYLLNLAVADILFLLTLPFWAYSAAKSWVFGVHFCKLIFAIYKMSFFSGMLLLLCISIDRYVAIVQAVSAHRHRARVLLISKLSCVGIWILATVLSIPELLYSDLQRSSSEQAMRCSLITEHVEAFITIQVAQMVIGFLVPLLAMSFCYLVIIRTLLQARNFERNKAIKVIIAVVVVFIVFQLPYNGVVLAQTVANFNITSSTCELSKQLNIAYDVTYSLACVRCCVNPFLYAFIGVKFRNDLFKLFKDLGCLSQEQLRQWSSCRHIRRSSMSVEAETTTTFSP

Kd: 5 nM
Substance: CCL21 (from UniProt O00585)
